Source: patent US20240269203A1 (Janssen / Centocor, published 2024)

Columns and labels:
[1] = target: human CD40 receptor, stably expressed on HEK293 (HEK-Blue) reporter cells (human) (UniProt P25942)
mouse CTLA-4 = target: T1, mouse CTLA-4 (mouse, UniProt P09793 36-161); experiment: ELISA on immobilized mCTLA-4; supernatant of Vero cells infected with mJP-OV-2 (FIG. 33)
T1 construct: also called mCTLA-4

Row | Molecule | EC50 (read off the curve), CD40 reporter cells, OD 650 nM [1] [ng/mL] | binding result (mouse CTLA-4)
1 | hCD40ag (human CD40 agonist payload; Fc-less trimer of single-chain CD40L ectodomain trimer bundles with T4 fibritin trimerization motif), purified (ligand) | 3 | –
2 | mαCTLA-4 (mouse surrogate anti-CTLA-4 antagonist payload; anti-CTLA-4 VHH fused to the heavy chain of mouse IgG2a Fc), expressed from mJP-OV-2 (Fc fusion, also called Mouse CTLA-4 antagonist payload; OVTSB24) QVQLVESGGGLAQPGGSLRLSCAASGSTISSVAVGWYRQTPGNQREWVATSSTSSTTATYADSVKGRFTISRDNAKNTIYLQMNSLKPEDTAVYYCKTGLTNWGRGTQVTVSSEPRGPTIKPCPPCKCPAPNLLGGPSVFIFPPKIKDVLMISLSPIVTCVVVDVSEDDPDVQISWFVNNVEVHTAQTQTHREDYNSTLRVVSALPIQHQDWMSGKEFKCKVNNKDLPAPIERTISKPKGSVRAPQVYVLPPPEEEMTKKQVTLTCMVTDFMPEDIYVEWTNNGKTELNYKNTEPVLDSDGSYFMYSKLRVEKKNWVERNSYSCSVVHEGLHNHHTTKSFSRTPGK | – | binds
